Results reported in patent US20020055130A1, “Method and product for regulating apoptosis” (National Jewish Center for Immunology and Respiratory …, priority 1997, published 2002).

B1: p35: baculovirus protein with broad inhibitory activity to ICE/FLICE-like proteases (protein, UniProt P08160 1-299, looked up)
Early 35 kDa protein: MCVIFPVEIDVSQTIIRDCQVDKQTRELVYINKIMNTQLTKPVLMMFNISGPIRSVTRKNNNLRDRIKSKVDEQFDQLERDYSDQMDGFHDSIKYFKDEHYSVSCQNGSVLKSKFAKILKSHDYTDKKSIEAYEKYCLPKLVDERNDYYVAVCVLKPGFENGSNQVLSFEYNPIGNKVIVPFAHEINDTGLYEYDVVAYVDSVQFDGEQFEEFVQSLILPSSFKNSEKVLYYNEASKNKSMIYKALEFTTESSWGKSEKYNWKIFCNGFIYDKKSKVLYVKLHNVTSALNKNVILNTIK
B2: DTVD→A: MEKK1 mutant with DTVD (amino acids 871-874) substituted with alanines (protein, UniProt P53349 2-1493, looked up, variant D871A T872A V873A D874A)
Mitogen-activated protein …: AAAAGDRASSSGFPGAAAASPEAGGGGGGGGALQGSGAPAAGAAGLLREPGSAGRERADWRRRQLRKVRSVELDQLPEQPLFLAAASPPCPSTSPSPEPADAAAGASRFQPAAGPPPPGAASRCGSHSAELAAARDSGARSPAGAEPPSAAAPSGREMENKETLKGLHKMEDRPEERMIREKLKATCMPAWKHEWLERRNRRGPVVVKPIPIKGDGSEVNNLAAEPQGEGQAGSAAPAPKGRRSPSPGSSPSGRSVKPESPGVRRKRVSPVPFQSGRITPPRRAPSPDGFSPYSPEETSRRVNKVMRARLYLLQQIGPNSFLIGGDSPDNKYRVFIGPQNCSCGRGAFCIHLLFVMLRVFQLEPSDPMLWRKTLKNFEVESLFQKYHSRRSSRIKAPSRNTIQKFVSRMSNSHTLSSSSTSTSSSENSIKDEEEQMCPICLLGMLDEESLTVCEDGCRNKLHHHCMSIWAEECRRNREPLICPLCRSKWRSHDFYSHELSSPVESPASLRAVQQPSSPQQPVAGSQRRNQESSFNLTHFGTQQIPSAYKDLAEPWIQVFGMELVGCLFSRNWNVREMALRRLSHDVSGALLLANGESTGNSGGGSGGSLSAGAASGSSQPSISGDVVEACCSVLSIVCADPVYKVYVAALKTLRAMLVYTPCHSLAERIKLQRLLRPVVDTILVKCADANSRTSQLSISTVLELCKGQAGELAVGREILKAGSIGVGGVDYVLSCILGNQAESNNWQELLGRLCLIDRLLLEFPAEFYPHIVSTDVSQAEPVEIRYKKLLSLLTFALQSIDNSHSMVGKLSRRIYLSSARMVTAVPAVFSKLVTMLNASGSTHFTRMRRRLMAIADEVEIAEVIQLGVEAAAAGHQDSLQAVAPTSCLENSSLEHTVHREKTGKGLSATRLSASSEDISDRLAGVSVGLPSSTTTEQPKPAVQTKGRPHSQCLNSSPLSHAQLMFPAPSAPCSSAPSVPDISKHRPQAFVPCKIPSASPQTQRKFSLQFQRNCSEHRDSDQLSPVFTQSRPPPSSNIHRPKPSRPVPGSTSKLGDATKSSMTLDLGSASRCDDSFGGGGNSGNAVIPSDETVFTPVEDKCRLDVNTELNSSIEDLLEASMPSSDTTVTFKSEVAVLSPEKAENDDTYKDDVNHNQKCKEKMEAEEEEALAIAMAMSASQDALPIVPQLQVENGEDIIIIQQDTPETLPGHTKAKQPYREDAEWLKGQQIGLGAFSSCYQAQDVGTGTLMAVKQVTYVRNTSSEQEEVVEALREEIRMMGHLNHPNIIRMLGATCEKSNYNLFIEWMAGGSVAHLLSKYGAFKESVVINYTEQLLRGLSYLHENQIIHRDVKGANLLIDSTGQRLRIADFGAAARLASKGTGAGEFQGQLLGTIAFMAPEVLRGQQYGRSCDVWSVGCAIIEMACAKPPWNAEKHSNHLALIFKIASATTAPSIPSHLSPGLRDVAVRCLELQPQDRPPSRELLKHPVFRTTW

Tests used:
[1] = tested on: MEKK1; assay: Immunoblot of cleavage fragments of transfected HA-tagged MEKK1 in HEK293 cells; type: cell-based, Human
Description: The full length cDNA encoding mouse MEKK1 was modified by addition of the HA-tag sequence ([…]) (SEQ ID NO: 12) at its NH2-terminus and inserted into the expression plasmid pCEP4 (Invitrogen), resulting in plasmid MEKK1.cp4. The MEKK1 sequences DTVD (amino acids 871-874) and DEVE (amino acids 857-860) in MEKK1.cp4 were substituted with alanines using a PCR strategy. The resulting plasmids were named DTVD_A.cp4 and DEVE_A.cp4. The cDNAs for CrmA (Pickup et al., 1986), p35 (Cartier et al., 1994), JNK1-APF (Dérijard et al., 1994) and JNK2-APF (Kallunki et al., 1994) were subcloned in pCEP4 in which the hygromycin resistance gene had been removed, resulting in plasmids CrmA.cp_, p35.cp_, JNK1_APF.cp and JNK2_APF.cp_. Plasmid pCDNA—3.cp4 is the result of the ligation of pCEP4 and pCDNA-3.
200-400 μg cell lysate protein was subjected to SDS-9% PAGE and transferred to nitrocellulose membranes. Blots were performed exactly as described (Widmann et al., 1995). To detect HA-tagged proteins, the mouse monoclonal antibody 12CA5 (Babco) was used as the primary antibody, followed by a rabbit anti-mouse antibody (Cappel). HRP-conjugated protein A at a 1/5000 dilution (Zymed) and ^125I-protein A at a 1/500 dilution (Dupont NEN) were then used for enhanced chemiluminescence (ECL) detection and for quantification using the phosphorimager. To detect MEKK1, 3 different ploclonal antisera were used as primary antibodies, followed by ECL detection using HRP-protein A (see above). These sera were generated by injecting rabbits with GST proteins fused with different portions of the MEKK1 protein.

[2] = tested on: c-Jun kinase (JNK); assay: c-Jun kinase assay, transfected HEK293 cells; type: cell-based, Human
Protocol: (§1) Lysis buffer (70 mM β-glycerophosphate, 1 mM EGTA, 100 μM Na3VO4, 1 mM DTT, 2 mM MgCl2, 0.5% Triton-X100, 20 μg/ml aprotinin) was added to cells 15-24 hours after transfection. Cellular debris was removed by centrifugation at 8,000xg for 5 min. Protein concentration was normalized by Bradford assay using BSA as standard.
c-Jun kinase (JNK) activity was measured using a solid phase kinase assay in which glutathione S-transferase-c-Jun(1-79) (GST-Jun) bound to glutathione-Sepharose 4B beads was used to affinity-purify JNK from cell lysates as described (Gardner and Johnson, 1996; Hibi et al., 1993). Alternatively, JNKI or JNK2 were immunoprecipitated with isoform specific antibodies (Santa Cruz Biotechnology) and GST-Jun used as substrate in an in vitro kinase assay (Hibi et al., 1993). Quantitation of the phosphorylation of GST-Jun was performed with a Phosphorlmager.

[3] = tested on: ERK2; assay: ERK2 immunoprecipitation kinase assay, transfected HEK293 cells; type: cell-based, Human; details: co-expression with MEKK1
Protocol: as §1
ERK2 was immunoprecipitated as described above for the JNK isoforms using the ERK2 (C-14) antibody (Santa Cruz Biotechnology). The beads were washed twice with 1 ml lysis buffer and twice with 1 ml lysis buffer without Triton-X100. […] The samples were washed thrice for 5 min each in 75 mM phosphoric acid and once for 2 min in acetone, air-dried, and their radioactivity determined in a β counter.

[4] = tested on: MEKK1; assay: SEK1 K→M phosphorylation by MEKK1 immunoprecipitates; type: biochemical, mouse; details: HEK293 lysates; 95-012 antibody
Protocol: MEKK1 was immunoprecipitated from cell lysates (200-500 μg) with the antibodies raised against specific sequences of MEKK1 or the 12CA5 antibody that recognizes the HA-tag sequence.

[5] = tested on: HEK293 cells; assay: MEKK1 staining and TdT-mediated dUTP incorporation (DNA fragmentation) in transfected cells; type: cell-based, Human
Protocol: Human embryonal kidney 293 cells (HEK293) stably expressing the EBNA-1 protein from Epstein-Barr virus (Invitrogen) were grown in Dulbecco's modified Eagle's medium (DMEM) supplemented with 100 U/ml penicillin/streptomycin and containing 10% bovine calf serum (BCS). The cells were transfected using lipofectamine (Gibco).
Cells were grown on glass coverslips and transfected using lipofectamine. Two days after transfection, the medium was removed and the cells were fixed in 2% paraformaldehyde, 3% sucrose in phosphate buffered saline (PBS) for 10 min at room temperature. Following three washes with PBS, the cells were permeabilized for 10 min with 2% Triton-X100 in PBS. After three PBS washes, the cells were blocked with filtered cultured medium for 15 min. The coverslips were then incubated 1 hour in TdT reaction mix (200 mM potassium cacodylate, 25 mM Tris.HCl, pH 6.6, 250 μg/ml BSA, 5 mM CoCl2, 0.25 U/μl TdT [Boehringer], 10 μM biotin-dUTP [Boehringer]) at 37° C. in a humidifed atmosphere. […] The coverslips were then washed 6× over a 30 min period with PBS and incubated 1 hour at room temperature with a 1/1000 dilution in filtered culture medium of a donkey anti-rabbit, Cy^3-conjugated, antibody (Jackson Immunological) mixed with 5 μg/ml streptavidin conjugated with FITC (Jackson Immunological). The coverslips were washed 6× with PBS and incubated overnight in PBS before being mounted in 20 mg/ml o-phenyldiamine-diHCl (Sigma) in 0.1 M Tris pH 8.5, 90% glycerol. Images were taken using a Leica DMRXA microscope and analyzed with the SlideBook v2.0 software (Intelligent Imaging Innovations, Denver). The subcellular localization of endogenous MEKK1 observed with the anti-COOH-terminal MEKK1 antibody was identical to that observed with a second antibody recognizing the NH2-terminal portion of the MEKK1 protein.

[6] = co-expression with MEKK1, 6 independent experiments

Molecule	amount of fragment A [1, 6]	diminution of the amount of fragment B [1, 6]	effect on activation of the JNKs by MEKK1 ([2]; co-expression with MEKK1)	effect on activation of ERK2 by MEKK1 [3]	SEK1 phosphorylation by COOH-terminal antibody immunoprecipitates [4]	expressing cells showing DNA breaks ([5]; co-expression with ΔMEKK1)	cells showing some DNA fragmentation ([5]; cotransfected with MEKK1)	MEKK1 cleavage fragments generated ([1]; mutants transfected into HEK293 cells)	JNK activation ([2]; expression in HEK293 cells)	reduction in number of expressing cells showing DNA fragmentation ([5]; compared to wild-type MEKK1 or the DEVE→A mutant)	DNA fragmentation ([5]; expression in HEK293 cells)
B1	unchanged	90%	unaffected	unaffected	reached the same level of phosphorylation observed when the 12CA5 antibody was used	10%	about 5%				
B2					reduced			only cleaved into fragments A and D	activated JNK to the same level as wild type MEKK1	65%	little DNA fragmentation
